Results: IntAct's records for PubMed 19966800

B1: Cytotoxicity-associated immunodominant antigen (Helicobacter pylori), P55980 (parent)
chain: MTNETIDQTRTPDQTQSQTAFDPQQFINNLQVAFIKVDNVVASFDPDQKPIVDKNDRDNRQAFDGISQLREEYSNKAIKNPTKKNQYFSDFIDKSNDLINKDNLIDVESSTKSFQKFGDQRYQIFTSWVSHQKDPSKINTRSIRNFMENIIQPPIPDDKEKAEFLKSAKQSFAGIIIGNQIRTDQKFMGVFDESLKERQEAEKNGGPTGGDWLDIFLSFIFNKKQSSDVKEAINQEPVPHVQPDIATTTTDIQGLPPEARDLLDERGNFSKFTLGDMEMLDVEGVADIDPNYKFNQLLIHNNALSSVLMGSHNGIEPEKVSLLYAGNGGFGDKHDWNATVGYKDQQGNNVATLINVHMKNGSGLVIAGGEKGINNPSFYLYKEDQLTGSQRALSQEEIRNKVDFMEFLAQNNTKLDNLSEKEKEKFQNEIEDFQKDSKAYLDALGNDRIAFVSKKDTKHSALITEFNNGDLSYTLKDYGKKADKALDREKNVTLQGSLKHDGVMFVDYSNFKYTNASKNPNKGVGATNGVSHLEAGFNKVAVFNLPDLNNLAITSFVRRNLENKLTAKGLSLQEANKLIKDFLSSNKELAGKALNFNKAVAEAKSTGNYDEVKKAQKDLEKSLRKREHLEKEVEKKLESKSGNKNKMEAKAQANSQKDEIFALINKEANRDARAIAYTQNLKGIKRELSDKLEKISKDLKDFSKSFDEFKNGKNKDFSKAEETLKALKGSVKDLGINPEWISKVENLNAALNEFKNGKNKDFSKVTQAKSDLENSVKDVIINQKVTDKVDNLNQAVSVAKAMGDFSRVEQVLADLKNFSKEQLAQQAQKNEDFNTGKNSELYQSVKNSVNKTLVGNGLSGIEATALAKNFSDIKKELNEKFKNFNNNNNGLKNSTEPIYAKVNKKKTGQVASPEEPIYTQVAKKVNAKIDRLNQIASGLGGVGQAAGFPLKRHDKVDDLSKVGLSASPEPIYATIDDLGGPFPLKRHDKVDDLSKVGRSRNQELAQKIDNLNQAVSEAKAGFFGNLEQTIDKLKDSTKKNVMNLYVESAKKVPASLSAKLDNYAINSHTRINSNIQNGAINEKATGMLTQKNPEWLKLVNDKIVAHNVGSVSLSEYDKIGFNQKNMKDYSDSFKFSTKLNNAVKDIKSGFTHFLANAFSTGYYCLARENAEHGIKNVNTKGGFQKS

Variants of: B1
Details: with mark2_human MARK2, Q7KZI7
Sequence of mark2_human MARK2, Q7KZI7 (Q7KZI7 whole entry): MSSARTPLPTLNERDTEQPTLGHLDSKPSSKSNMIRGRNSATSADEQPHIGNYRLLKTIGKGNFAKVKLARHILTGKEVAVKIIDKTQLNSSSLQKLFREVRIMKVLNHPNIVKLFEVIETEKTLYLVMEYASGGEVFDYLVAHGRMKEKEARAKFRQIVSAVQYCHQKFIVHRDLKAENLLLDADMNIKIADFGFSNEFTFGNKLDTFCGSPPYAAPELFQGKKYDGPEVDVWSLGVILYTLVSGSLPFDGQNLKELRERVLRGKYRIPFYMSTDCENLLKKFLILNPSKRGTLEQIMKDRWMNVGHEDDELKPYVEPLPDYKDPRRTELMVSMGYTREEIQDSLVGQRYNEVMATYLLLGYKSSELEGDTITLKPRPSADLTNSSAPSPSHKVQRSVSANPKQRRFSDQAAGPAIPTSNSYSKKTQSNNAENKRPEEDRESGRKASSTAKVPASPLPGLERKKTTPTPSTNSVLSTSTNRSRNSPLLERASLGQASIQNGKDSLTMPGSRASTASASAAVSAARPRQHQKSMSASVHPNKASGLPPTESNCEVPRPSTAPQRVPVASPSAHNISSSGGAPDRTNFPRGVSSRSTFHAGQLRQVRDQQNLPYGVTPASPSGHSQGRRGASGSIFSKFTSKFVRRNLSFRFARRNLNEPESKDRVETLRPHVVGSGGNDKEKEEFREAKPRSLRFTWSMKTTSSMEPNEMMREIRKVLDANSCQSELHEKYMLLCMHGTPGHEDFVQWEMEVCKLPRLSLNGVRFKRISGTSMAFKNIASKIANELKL

Variant	effect of a mutation on the interaction
L959G	disrupting interaction
V956G	disrupting interaction
L950G	disrupting interaction
R952G	decreasing interaction
